Reference: the DeepSol protein solubility set

Assay: soluble on expression in E. coli; label from the status in PepcDB or PDB records

Sequence | soluble on expression in E. coli
MGHHHHHHSHMKPNVGQGSTSVQTAMESELGESSATINKRLCKSTIELSENSLLPASSMLTGTQSLLQPHLERVAIDALQLCCLLLPPPNRRKLQLLMRMISRMSQNVDMPKLHDAMGTRSLMIHTFSRCVLCCAEEVDLDELLAGRLVSFLMDHHQEILQVPSYLQTAVEKHLDYLKKGHIENPGDGLFAPLPTYPYCKQISAQEFDEQKVSTSQAAIAELLENIIKNRSLPLKEKRKKLKQFQKEYPLIYQKRFPTTESEAALFGDKPTIKQPMLILRKPKFRSLR | not soluble
MAHHHHHHMRGTPLREGHHSPTQSVRRFFSDYQHVQEEKVNLPRLKLRGLPFDASEEEIKTFFKNFQLAKVGYPIHIIRGVKNKPTGQAHVYFDDEEEARKACETLNRKFLRNRYIEIYTDYIFNHNLTLVKEHVTTLMRDRYRKDNQ | not soluble
IEIRSVVYQIEGQPYESRLVYDSSATALQPGLLMAPNWMGVSRGAEDIARAVAAKGYVVLLADLYGQQLRPSNNDEAGAAMTPLKNDRGLLRKRMQAGLDQLLSQADVSLDVSRIATFGFCFGGCCSLELARTGAELKAAISFHGTLDTPNPADASNIKGSVLVLHGASDPLVPKEQLPAFEEEMNAAGVDWQLHSHGGAFHSFTDPHANVPGMMMYDAKVSARAFKSMHDLLKEVFG | not soluble
MSLNKTNYNNIISINQQREFVLFQNIQKECPLLVVFDLDDTLIHTHINTNNLCINSSDIFTIRVNEIKYYCEVRKGVVETLERLSKQFRIMIYTASKKEYADQVVSHLEKNCKLFSKILYREDCLEEEGFIYKTIHNINYNVKRIICIDDNPSAWKKLENVYVCKKYNGGIDDEMIDIEKTFIKCCILCFLFVEGHHHHHH | soluble
MDRISGLPDEVLVKILSFVPTKVAVSTSILSKRWEFLWMWLTKLKFGSKRYSESEFKRLQCFLDRNLPLHRAPVIESFRLVLSDSHFKPEDIRMWVVVAVSRYIRELKIYSSHYGEKQNILPSSLYTCKSLVILKLDGGVLLDVPRMVCLPSLKTLELKGVRYFKQGSLQRLLCNCPVLEDLVVNLSHHDNMGKLTVIVPSLQRLSLSTPSSREFVIDTPSLLSFQLVDRNDNSHTFLIENMPKLREAYINVPFADIKSLIGSITSVKRLAISSEVGYGEGFIFNHLEELTLWNKYSSNLLVWFLKNSPNLRELMLVSETDVSFFH | soluble
MGSDKIHHHHHHEPYSEIIEEDYVPTEADEIALLATTYSQLRFVMDWYGLFDLQEESGDVIVTPTRPNGWDDGGTYKQMHKHTWDNQQGQPQSIWDYCYKGIANANKILKRADEGFFTEESKPKVVAEVKGVRALWYSILCDTHGNIPIQTSFSEEVPVQSTRKQVFDFIINELKEVMPNLPTEVNKSTYGRLTQWGAKCLMARMYLNAGVYTGTPMWNECLEQCNDIINSGLFSLETNYTDIFKTENSGCVETIFAIPYDEVYNEGDNNGPVFGAHMKFLSSNSRKVFNMQTTPWGGSAANPQFINSYDPDDMRLKYTWLQGDQYSPDGVLITTFPNKLPSIYKTDTDDGYRVGKYEIKVGAKSLLSNDFPYFRYTEVLLMKAECLLRLGQNETEAAHIVSQIRERAFRESAHPEKATVDAAWLKGDTHINYGTLDEKGQIDDAGNTEVVELGGLYDEWGWEFAAEARRRTDMIRFGTYQKKSWFNHTPTANDLNGNSILFPIHLDHLNTNPNLQQNPGYAGK | not soluble
MGSDKIHHHHHHMSISEQCVIEIDKYIDYFKKNTSQPNILAKLFKTDSSYYVYDTGTNKVLTCGEYEYSILGKIIDNKFDEISRINDDADKSGFYEALENVRQAIEKEDILRGGKEWKFVSKGHFEELDKKLNYELDQITLELTEKCNLRCRYCIYNESYEHKRNFGNKDMPIEIAEKAIDYANLHSGKEKGVGVTFYGGEPLVNFKLLKHSIEYSRKVIKDKKLTFSLTSNLTLMTPEIATYLASIENLTILCSIDGPEEIHDSYRKDINGNGTFKRAIRGLKYLIEAFGDKANKAVMMNMVFTPPYSIEKVNKIETFINSLDWLPKGLRISMTYPSTGSVDDTPPKGCEKNYGMELIQWSESKYKSELKSDGKIDMFNEEFVVHPILRIHGRRISAKSESGYPVNGCCIPGSRKLYVTVDGNFQICERINGSPIIGNVFNGIDENKIKNEVIDEFINKSIKDCSRCWAARLCNVCYSHCYTDGKLDMKEKKRYCIRSRERALRSLVFYHKCAEINPEKLKYLNKIEVS | not soluble
MVTEQEIEAIGKTLVDPKQPLQARFRALFTLRGLGGPDAISWISRGFEDSSALLKHELAYCLGQMRDVRAIPVLVGVLQDTSQEPMVRHEAGEALGAIGNPEVLGLLKQYSTDPVVEVAETCQLAVGRLEWLQQHPGEATCAGPYLSVDPAPPAAEQDVGRLREALLDEARPLFERYRAMFALRNVGGKEAALALAEGLQCGSALFRHEVGYVLGQLQHEAAVPGLAATLARTTESPMVRHECAEALGAIARPACLAALREHIEDPEQVVRESCEVALDMYEYESSQDFQYADGLERLRPPP | soluble
MNEKQADTLLNVPEIVKRAKIALNLKRDSELASYLGVARATLSNWCARNSIDFPLLLNKLRHVDYNWLLTGKGSPLHDPKSFDNGKIRGEVETIHNSKTTEAIDDRSVTLYDITAAANLRTLLSDKRQYALGKILIPSIPACDGAIFVNGDSMYPILKSGDIVGFKGINNFSNVIYGEMYIVAFHLDGDQYLTVKYVNRSEKEGYVKLVSYNPHHEPMDLPVDTIQDMAIVKFSIRKNMMM | not soluble
MGSDKIHHHHHHLPALRLLAGPTAYEQLEANGLDQSLFTQLFAASGGPKWLAIAGLDKYLFSEFFQDREDPLYTMGASSGAWRLACMAQQDPLAAYERLEHFYIHQNYEKKPTREQVSAQVLQIVDGILGEQQGADIIANPLIRHHMVACRARHLNRIHAKFGLMMGLSMAAVSNVVNRKSLGWHFERVILSHKDAASPFRRLKDLPTKHVELTQDNIRHGLLATGSIPLLLDPVKDLQGSPKGHYYDGGITDYHFDMPLPAATGLSLYPHFYPYMSPGWFDKSLLWRKAKANYHNGLILAPSKQFIASLPFSKIPDREDFKNLDTKSRITYWQQSVQQSQVLADEFAEIVASGTIMDRIERL | not soluble
MGSDKIHHHHHHMHVGRENSSFQICNSSQDIRKSDILDAMSIRFRQLQAFHATFETGTVTGAATLLGISQPGISNLLAQLERETRFKLFERVKGRLIPTPEAGVLYQEVDTVVRGLDHVGQAVTDLQNKQGGQLQVASQHAMSFGFMPKLIAQFAKTRPDMSISFQSQYSSKVQEWVMSGLFEIGVCETPQLYDALDTHPFQVEMQLTLHPDNPLARHDILTPELCGAEPFIVMGPDHMTHRRTREAFHTAGVPWNTRVHTHLFKNMLSFVQEDMGVAILDPFLLDHDESGSFVTRPFAPAIHMDMMVITSATRPLSTLALDFLDLLLTGIAQSDRRRVSPSNAAPGRPPLPMAAR | not soluble
MGMTIVEKILAKASGKKEVSPGDIVMANIDVAMVHDITGPLTVNTLKEYGIEKVWNPEKIVILFDHQVPADSIKAAENHILMRKFVKEQGIKYFYDIREGVCHQVLPEKGHVAPGEVVVGADSHTCTHGAFGAFATGIGSTDMAHVFATGKLWFKVPET | not soluble
QTLDIQRGATLFNRACIACHDTGGNIIQPGATLFTKDLERNGVDTEEEIYRQTYFGKGRMPGFGEKCTPRGQCTFGPRLQDEEIKLLAEFVKFQADQGWPTVSTD | soluble
VFILPDCNPVLKFISSARERLLIIAPYIDFRWYKDDGLLEAIKGAKESGAEVKVVLNAKYAKEEAVSTLRKEGVKVELIDNLHGKAIVSDKRLLITSANMNMHGLKLNREIGVIINNPEMADAVIKEFEGGEVTPLD | not soluble
MEIEVVYQHSDFIIINKSEGISVHKDQEEQGLTELVAKQLNVPKVWLVHRLDKVTSGLLILALNAESAAEFSRLFSEHKIHKTYLALSNQKPKKKQGLIIGDMKKAREGAWKLCQTKDNPAITRFESVSCEPNLRLFILKPQTGKTHQLRVAMKSLGSPILGDGLYGKNTEKIDRTYLHATQLEFDYLNNFISVTCLPSQGQFWIKPTVFEQIQVYLTKPFLSKLEHHHHHH | soluble
MSLAPRPRILICEDDPDIARLLNLMLEKGGFDSDMVHSAAQALEQVARRPYAAMTVDLNLPDQDGVSLIRALRRDSRTRDLAIVVVSANAREGELEFNSQPLAVSTWLEKPIDENLLILSLHRAIDNMAEGKPRILHVEDDLDIQRIAAAIAQNFATFEFACTLQEARDQLASHHYDLVLLDLTLKDGSGWELLSTIEALDPAPPVVVFSASKLNMMESQRVEAVLVKADTSNEELIRVLQRVLDDSLWGTVDSPLSEGHHHHHH | soluble
MTTVFDVPAAEMIDKLAGILKENENVVPPQWAGNVKTGVHKDLPPTNDDWWYVRCAAVLRKIYTDGPIGIERLRSVYGGKKDNGSQPYHKAKGSGSIARKSVQQLEAAGFLQKVKDGRTVSAKGRSMMDNAAHELKQELLEKIPELAKYLEHHHHHH | soluble
MEWKTVVKPHTERINVKRSEFYATIFPVKDEKDFREKLKEVSKRDATHNCWAYRIFSPNGILEHSSDDGEPSGTAGRPILGALKKYDLMNTAIVVTRYFGGVKLGVRGLIEAYSSAAEMAVKGAELRKLRLMKEFEVEVDYQELNNVFRVVEMMGLELVEMDYTERGAKILLRGLEVPENLVIKTIRDVLI | soluble
YIGSQDTPYTGGLINTFSYKNWELTANLSFNLGGYVRTTPSYNFINFDRGQNVNSDILDRWTPENTDGRLPALITSEKRADEYYWYDQKSEIYKNLDIWVKKLNYFRLQNLRLGYRLPEKMTKSLGMGSASVAIEGRNLLVFGSSYKNFLDPESMYNPYAPPIPKSITFSLNLNF | not soluble
MSLMTSVVPSFCHQDRRSNQRMKGLSPLAMAQVVTLGVLEPRAQGAVRWRRCWPERSTVGAIEAQRHWRPYLELSWAEKQQRDERQSQRASRVREEMFAKGQPLAPYNTTQFLMNDRDLEEPNLDVLHGPSHSGSGGENEAGDSDGQGRAHGEFQQRDFSEAYERYHTESLQGRSKQELVRDYLDLERRLSQAEQETRRLRQLQGCSSRQPCQQVEELAAEVERLRTENQRLRQENEMWNREGGYCDQEKPASEGTPWPKVEAPFQTHTGQLGHREAGDR | soluble
MGSDKIHHHHHHVTQNSPRQLSLPVYLPDDETFQSYYPASGNDELIQKLQASAQGGLSSSLYIYGPVKSGRTHLMHAACALANDKDRRTLYIPLGIHASISPALFEGLESLELICIDDIDAIAGHPIWEEAIFHLYNRIAEHKDCHLIVSGKASPTEAGFLLPDLVSRMQWGLIYQLQPMADDEKLLALQRRAAMRGLQLSDEVGRFLLTRMARDLRTLFDVLDKLDKASMVHQRKLTIPFIKEMLRL | not soluble
MAHHHHHHMCHLCDVPVITPDKGVIQSGCGLHPKKTLGNGGAGGVHPGKNTTQETGFPTTGGPNNQHIHLRLCDLVLPRVEYNILPQIFRGVNRDLRHSWSILGGQCGTVKVRRVSLQHAVGATRLHVSVQETAPPFPLHGVTPPLHPLCGAHKLDGQFTDTAGQRTTRPLYTSHTRRIPTAFSLFYSPFFCVPSSNRAPSSSALHVPLTRRWQKGRRRLGTSHARTPRPHSPK | not soluble
MAHHHHHHMWAKYSSSAVEEASKQAKSFATYPSSTPDMSGDEKEAFHETNSRDAFTVALLKHVARNLGVQYMGDRVETSDSIVMDKLGRIKAEIRSRERLLGVENMGLIPLFIEAGDSSLTCEDSLIYYKKALDIVEANKDIKRDSNMMNDVGVSSFADLGSRFFRYGQYQVAERLFTMAAAISRDKVTGVAEEISFSTAQCGSQKSLQRLKGHLWDWKKAAEAANEDLSTLLSDATRNTHRFREMRDACSQTDLAEHRVAMPASQFIGTKREMKGLKGTRNGEELKRLVEYVFDPMSVEDGFTRQLLPKGSRNTTRLLSEHFTGSNPCLALRESIDCITSRIGAKADSINSSGGALRRELQTR | not soluble
